Assay results taken from the RNAGym collection of RNA variant scans (doi:10.7554/elife.80360).

B1: Hairpin Ribozyme (parent)
chain: GUCCUCUUUCACGUGCGCGUGAAAGAGAGAAGUGAACCAGAGAAACACACGUUGUGGUAUAUUACCUGGUA

Variants of: B1
Assay: self-cleavage, relative activity (ratio to wild type); higher = more cleavage; co-transcriptional
With GUCCUCUUUGACGUGCGCGUGAAAGAGAGAAGUGAACCAGAGAAACACUCGUUGUGGUAUAUUACCUGGUA [C10G A49U] the self-cleavage was 0.21.
Work on GUCCUCUUUCACGUGCGCGUGAAAGCGAGAAGUGAAUCAGAGAAACACACGUUGUGGUAUAUUACCUGGUA [A26C C37U] yielded a self-cleavage of 0.446.
For GUCCUCUUUCACGUGCGCGUGAAUGAGAGAAGUGAACCAGAGAAACACACGUUGGGGUAUAUUACCUGGUA [A24U U55G], the self-cleavage was 0.242.
Work on GUCCUCUUUCACGUGCGCGUGAAAGAGAGAAGUGGACCAGAUAAACACACGUUGUGGUAUAUUACCUGGUA [A35G G42U] yielded a self-cleavage of 0.304.
GUCCUCUUUCACGUGCGCUUGAAAGAGAGAAGUGAACCAGAGAAACACACGGUGUGGUAUAUUACCUGGUA [G19U U52G] showed a self-cleavage of 0.741.
Work on GUCCUCUUUCACGUGCGCGUGAAAGAGAGAUGUGAACCAGAGAAACACACGUUGUGGUAUAUUACCUGGCA [A31U U70C] yielded a self-cleavage of 0.0555.
In the case of GUCCUCUUUCACGUGCGCGUGAAAGAGAGAAGUGAACCAGAGAAACACAGGUUGUGGUCUAUUACCUGGUA [C50G A59C], the self-cleavage is reported as 0.221.
Variant GUCCUCUUUCAAGUGCGCGUGAAAGAGAGAAGUGAACCAGAGAAACACACGUUGUGGUAUAUUACGUGGUA [C12A C66G] has a self-cleavage of 0.208.
GUCCUCUUUCACGUGCGCGUGAAAGAGAGAAGUGAACCAGAGAAACGCACGUUGUGGUAUAUUAUCUGGUA [A47G C65U] showed a self-cleavage of 0.156.
UUCCUCUUUCACGUGCGCGUGAAAGAGAGAAGUGAACCAGAGAAACACACGUUGUGGUACAUUACCUGGUA [G1U U60C] showed a self-cleavage of 0.
Variant GUCCUCUUUCACGUGCGCGUGAAAGAGAGAAGUGAGCCAGAGAAACACACGUUGUGGUAUAUUACCUGGUC [A36G A71C] has a self-cleavage of 1.23.
In the case of GUCCUCUUUCACGUGCGCGUGACAGAGAGAAGUGAACCAGAGAAACACACGUUGUGAUAUAUUACCUGGUA [A23C G57A], the self-cleavage is reported as 0.196.
GUCUUCUUUCACGUGCGCGUGAAAGAGUGAAGUGAACCAGAGAAACACACGUUGUGGUAUAUUACCUGGUA [C4U A28U] gave a self-cleavage of 0.178.
GUCCUCUUUCACGUGCGCGUGAUAGAGAGAAGUAAACCAGAGAAACACACGUUGUGGUAUAUUACCUGGUA [A23U G34A] showed a self-cleavage of 0.956.
In the case of GUCCUCUUUCACAUGCGCGUGAAAGAGCGAAGUGAACCAGAGAAACACACGUUGUGGUAUAUUACCUGGUA [G13A A28C], the self-cleavage is reported as 0.258.
Variant GUCCUCUUUCACGUGCGCGUGAAAGAGAGAAGUGAAGCAGAGAAACACACGUUGUGGUAUCUUACCUGGUA [C37G A61C] has a self-cleavage of 0.112.
In the case of GUCCUCUUUCACGUGCGCGUGAAAGAGAGAAGUGAACCAGAGAAACACACGUUGUGGUAUAUUUCCUGGUG [A64U A71G], the self-cleavage is reported as 0.311.
With GUCCUCUUUCACGUGCGCGUGAAAGAGAGAAGUAAACCAGAGAAACACACGUUGUGGUAUAUUACCUAGUA [G34A G68A] the self-cleavage was 0.246.
Work on GUUCCCUUUCACGUGCGCGUGAAAGAGAGAAGUGAACCAGAGAAACACACGUUGUGGUAUAUUACCUGGUA [C3U U5C] yielded a self-cleavage of 0.299.
GUCCUCUUUCACGUGCGCGUGAAAGAGAGAAUUGAACCAGAGAUACACACGUUGUGGUAUAUUACCUGGUA [G32U A44U] gave a self-cleavage of 0.243.
With GUCCUCUUUCACGUGCGCGUGAAAGAGAGAAGUGAACCAGAGAAACACACGUUGUUGUAUAUUACCUGGGA [G56U U70G] the self-cleavage was 0.0481.
GUCCUCUUGCACGUGCGCGUGAAAGAGAGCAGUGAACCAGAGAAACACACGUUGUGGUAUAUUACCUGGUA [U9G A30C] gave a self-cleavage of 0.206.
GUCCGCUUUCACGUGCGCGUGAAAGAGAGAAGUGAACCAGAGAAUCACACGUUGUGGUAUAUUACCUGGUA [U5G A45U] showed a self-cleavage of 0.0709.
Variant GUCCUCUUACACGUGCGCGUGAAAGAGAGAAGUGAACCAGAGAAACACACGUUGUGGUAUAUUCCCUGGUA [U9A A64C] has a self-cleavage of 0.0749.
For GUCCUCUUUCACGUGCGCAUGAAAGAGAGAAGUGAACCAGAGAAACACACGUUGUGGUAUAUUCCCUGGUA [G19A A64C], the self-cleavage was 0.181.
For GUCCUCUUUCACGUGCGCGUGAAAGAGAGAAGUGUACCAGAGAAACAUACGUUGUGGUAUAUUACCUGGUA [A35U C48U], the self-cleavage was 0.162.
GUCCUCUUUCACGUGCGCGUGAAAGAGAGAAGUGAACCAGAGAAACACACGUUGUGGUAUGUUACCUGGUG [A61G A71G] gave a self-cleavage of 0.168.
For GUCCUCUUUCACGUGCGCGGGAAAGAGAGAAGUGAACCAGAGAAACACACGUUGUGGUAAAUUACCUGGUA [U20G U60A], the self-cleavage was 0.775.
In the case of GUCCUCUUUGGCGUGCGCGUGAAAGAGAGAAGUGAACCAGAGAAACACACGUUGUGGUAUAUUACCUGGUA [C10G A11G], the self-cleavage is reported as 0.655.
GUCUUCUUUCACGUUCGCGUGAAAGAGAGAAGUGAACCAGAGAAACACACGUUGUGGUAUAUUACCUGGUA [C4U G15U] showed a self-cleavage of 0.32.
Work on UUCCUCUUUCACGUGCGCGUGAAAGGGAGAAGUGAACCAGAGAAACACACGUUGUGGUAUAUUACCUGGUA [G1U A26G] yielded a self-cleavage of 0.314.
With GACCUCUUUCACGUGCGCGUGAAAGAGAGAAGUGAACCAGAGAAACACACGUUGUGGUAUAUUACCUUGUA [U2A G68U] the self-cleavage was 0.133.
Variant GUCCUCUUUCACGUCCGCGUGAAAGAGAGAAGUGAACCAGAGAAACACACGUUGUGGUAUAUUACCUGCUA [G15C G69C] has a self-cleavage of 0.275.
GUCCUCUUUCACGUGCGCGUGAAAGAGAGAAGUGUACCAGAGAAUCACACGUUGUGGUAUAUUACCUGGUA [A35U A45U] showed a self-cleavage of 0.151.
GUCCUCUUUCACGUGCGCGUGAAAGAGAGAAGUGAACCAGUGAAACACACCUUGUGGUAUAUUACCUGGUA [A41U G51C] showed a self-cleavage of 1.27.
GUCCUCCUUCACGUGCGCGUGAAAGAGAGUAGUGAACCAGAGAAACACACGUUGUGGUAUAUUACCUGGUA [U7C A30U] gave a self-cleavage of 0.257.
Work on GUCCUCUUUCUCAUGCGCGUGAAAGAGAGAAGUGAACCAGAGAAACACACGUUGUGGUAUAUUACCUGGUA [A11U G13A] yielded a self-cleavage of 0.672.
GUCCUCUUUCACGUGCGCGUGAAAGAGAGACGAGAACCAGAGAAACACACGUUGUGGUAUAUUACCUGGUA [A31C U33A] gave a self-cleavage of 0.241.
